# Source: patent US20220064254A1 (Janssen / Centocor, published 2022)
# B1: CAR20 (KL2B359_LH) (other)
# chain: EIVLTQSPATLSLSPGERATLSCRASESVEYFGTSLMHWYQQKPGQPPRLLIYAASNVESGIPARFSGSGSGTDFTLTISSVEPEDFAVYFCQQTRKVPYTFGGGTKVEIKGGSEGKSSGSGSESKSTGGSQVQLQESGPGLVKPSQTLSLTCTVSGNSITSDYAWNWIRQFPGKRLEWIGYISYSGSTTYNPSLKSRVTISRDTSKNQFSLKLSSVTAADTAVYYCATGYYYGSGFWGQGTLVTVSSTSTPAPRPPTPAPTIASQPLSLRPEACRPAAGGAVHTRGLDFACDIYIWAPLAGTCGVLLLSLVITLYCKRGRKKLLYIFKQPFMRPVQTTQEEDGCSCRFPEEEEGGCELRVKFSRSADAPAYKQGQNQLYNELNLGRREEYDVLDKRRGRDPEMGGKPRRKNPQEGLYNELQKDKMAEAYSEIGMKGERRRGKGHDGLYQGLSTATKDTYDALHMQALPPR
# notes: also called KL2B359 LH CAR; rehumanized 11B6 LH CAR
# Experiments:
# [1] = molecular target: T1, biotinylated recombinant hK2 protein (human, UniProt P20151 25-261, biotin label (EZ-Link Sulfo-NHS-LC-Biotin)); assay: flow cytometry; primary human T cells lentivirally transduced with the CAR (MOI 3), day 14, stained with biotinylated hK2 (1 ug/ml) then streptavidin-PE; UTD control gate 0.065
# T1 construct: In-house biotin-labelled recombinant hK2 used as the flow cytometry reagent; also called biotinylated hK2; Biotin-Hk2 protein
# T1 sequence (P20151 25-261): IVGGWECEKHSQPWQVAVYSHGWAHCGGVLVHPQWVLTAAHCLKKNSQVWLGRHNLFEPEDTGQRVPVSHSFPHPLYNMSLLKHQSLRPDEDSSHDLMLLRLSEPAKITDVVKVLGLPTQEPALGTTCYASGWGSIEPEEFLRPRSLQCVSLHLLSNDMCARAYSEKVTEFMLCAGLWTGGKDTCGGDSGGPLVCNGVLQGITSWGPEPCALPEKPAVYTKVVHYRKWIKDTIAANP
# [2] = molecular target: hK2 on target cells (VCaP, LNCaP/hK2, LNCaP, C4-2B) (human, UniProt P20151 19-261); assay: cell-based or functional assay
# Sequence of hK2 on target cells (VCaP, LNCaP/hK2, LNCaP, C4-2B) (P20151 19-261): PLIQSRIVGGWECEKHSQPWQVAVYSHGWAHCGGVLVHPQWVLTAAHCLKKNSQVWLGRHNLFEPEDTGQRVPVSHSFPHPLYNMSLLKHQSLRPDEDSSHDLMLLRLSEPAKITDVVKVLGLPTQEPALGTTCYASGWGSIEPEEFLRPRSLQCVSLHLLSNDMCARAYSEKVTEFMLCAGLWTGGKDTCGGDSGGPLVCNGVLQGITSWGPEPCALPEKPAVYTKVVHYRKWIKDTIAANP
# [3] = molecular target: T1, biotinylated recombinant hK2 protein; assay: flow cytometry; CAR-transduced JNL cells stained with biotinylated hK2 and streptavidin-PE
binder,measurement,setting,value
B1,percent of CD3+ T cells in the PE-positive gate (hK2 CAR),[1],59.9%
same,"tumor cell growth inhibition (TGI, %) of hK2 positive VCaP cells, real-time IncuCyte killing assay, 96 hours",[2],~100%
same,% of JNL cells stained with biotinylated hK2 (reported as CAR expression),[3],50.8%
